# Biological target: GLP-1 receptor (Rattus norvegicus) (UniProt P32301)
# Test: competitive cellular ELISA against GLP-1/hIgG2 (INS-1 cells)
# Sequence of GLP-1 receptor (Rattus norvegicus) (P32301 22-463): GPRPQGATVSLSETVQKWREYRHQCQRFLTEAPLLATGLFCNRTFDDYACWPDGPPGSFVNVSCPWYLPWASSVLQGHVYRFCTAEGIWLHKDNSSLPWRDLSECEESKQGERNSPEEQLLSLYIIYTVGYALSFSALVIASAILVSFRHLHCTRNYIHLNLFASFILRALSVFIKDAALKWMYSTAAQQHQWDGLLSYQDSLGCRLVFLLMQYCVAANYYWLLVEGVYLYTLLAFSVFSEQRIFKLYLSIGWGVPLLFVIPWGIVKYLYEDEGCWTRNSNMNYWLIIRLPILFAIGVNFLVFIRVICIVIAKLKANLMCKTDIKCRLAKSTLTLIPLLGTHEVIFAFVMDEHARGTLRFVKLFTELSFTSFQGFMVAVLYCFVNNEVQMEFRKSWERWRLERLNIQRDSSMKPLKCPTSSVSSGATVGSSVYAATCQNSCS
# Sequence of Exendin-4 (P26349 48-86): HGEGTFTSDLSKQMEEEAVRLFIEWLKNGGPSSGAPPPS
substance,measurement,value
Exendin-4 (from UniProt P26349),IC50,8.15 nM
